Results on eight molecules are retold here after patent publication US7582460B2 (Wacker Chemie AG, priority 2003, dated 2009).

For test [1], the system named is 3-phosphoglycerate dehydrogenase (PGD). As to the kind of experiment: PGD enzyme activity in crude extracts (McKitrick and Pizer test). The test is classed as biochemical, Escherichia coli. The conditions noted are these: crude extract of strain expressing plasmid-encoded serA allele; backward reaction, NADH oxidation at 340 nm. From the text: (§1) For example, the PGD activity can be determined in analogy with the method described by McKitrick and Pizer (1980, J. Bacteriol. 141:235-245). The backward reaction is used to measure the enzyme activity in an assay sample which contains phosphohydroxypyruvate and NADH/H^+. The reaction is started by adding enzyme and is monitored in a spectrophotometer by way of the decrease in extinction at 340 nm which is caused by oxidation of the NADH/H^+.
(§2) At an optical density of 1.0, serA expression was in each case induced by adding 0.4 mM […] and the culture was incubated for a further 3 hours. The cells were subsequently harvested by centrifugation, washed and resuspended in 2 ml of buffer (100 mM K-phosphate, pH 7.0; 10 mM MgCl2; 1 mM dithiothreitol). The cells were disrupted using a French press (Spectronic Instruments, Inc. Rochester, N.Y., USA) at a pressure of 18 000 psi. The crude extracts were clarified by centrifugation at 30 000 g and PGD activity was determined using the McKitrick and Pizer test (1980, J. Bacteriol. 141:235-245).

For test [2], the target named is 3-phosphoglycerate dehydrogenase (PGD). As to the kind of experiment: Inhibition of PGD activity by L-serine, inhibitor constant Ki. The test is classed as biochemical, Escherichia coli. The conditions noted are these: Ki = inhibitor concentration at which activity is 50% of activity without inhibitor.
Excerpt: as §1, §2

B1: serA412: E. coli PGD variant with replacement G349V (protein, UniProt P0A9T0 2-410, looked up, variant G349V)
D-3-phosphoglycerate …: AKVSLEKDKIKFLLVEGVHQKALESLRAAGYTNIEFHKGALDDEQLKESIRDAHFIGLRSRTHLTEDVINAAEKLVAIGCFCIGTNQVDLDAAAKRGIPVFNAPFSNTRSVAELVIGELLLLLRGVPEANAKAHRGVWNKLAAGSFEARGKKLGIIGYGHIGTQLGILAESLGMYVYFYDIENKLPLGNATQVQHLSDLLNMSDVVSLHVPENPSTKNMMGAKEISLMKPGSLLINASRGTVVDIPALCDALASKHLAGAAIDVFPTEPATNSDPFTSPLCEFDNVLLTPHIGGSTQEAQENIGLEVAGKLIKYSDNGSTLSAVNFPEVSLPLHGGRRLMHIHENRPVVLTALNKIFAEQGVNIAAQYLQTSAQMGYVVIDIEADEDVAEKALQAMKAIPGTIRARLLY
What is called Ki is the equilibrium dissociation constant of an inhibitor or competing ligand from its target. A higher Ki goes with weaker binding. In turn, B1 returned an Activity in test [1] of 0.05 units/mg. Besides, the Ki in test [2] stood at 5 mM.

B2: serA418: E. coli PGD variant with replacement G349Y (protein, UniProt P0A9T0 2-410, looked up, variant G349Y)
D-3-phosphoglycerate …: AKVSLEKDKIKFLLVEGVHQKALESLRAAGYTNIEFHKGALDDEQLKESIRDAHFIGLRSRTHLTEDVINAAEKLVAIGCFCIGTNQVDLDAAAKRGIPVFNAPFSNTRSVAELVIGELLLLLRGVPEANAKAHRGVWNKLAAGSFEARGKKLGIIGYGHIGTQLGILAESLGMYVYFYDIENKLPLGNATQVQHLSDLLNMSDVVSLHVPENPSTKNMMGAKEISLMKPGSLLINASRGTVVDIPALCDALASKHLAGAAIDVFPTEPATNSDPFTSPLCEFDNVLLTPHIGGSTQEAQENIGLEVAGKLIKYSDNGSTLSAVNFPEVSLPLHGGRRLMHIHENRPYVLTALNKIFAEQGVNIAAQYLQTSAQMGYVVIDIEADEDVAEKALQAMKAIPGTIRARLLY
Regarding B2, the Activity in test [1] stood at 0.05 units/mg. Moreover, the Ki in test [2] was found to be 6 mM.

B3: serA417: E. coli PGD variant with replacement G349W (protein, UniProt P0A9T0 2-410, looked up, variant G349W)
D-3-phosphoglycerate …: AKVSLEKDKIKFLLVEGVHQKALESLRAAGYTNIEFHKGALDDEQLKESIRDAHFIGLRSRTHLTEDVINAAEKLVAIGCFCIGTNQVDLDAAAKRGIPVFNAPFSNTRSVAELVIGELLLLLRGVPEANAKAHRGVWNKLAAGSFEARGKKLGIIGYGHIGTQLGILAESLGMYVYFYDIENKLPLGNATQVQHLSDLLNMSDVVSLHVPENPSTKNMMGAKEISLMKPGSLLINASRGTVVDIPALCDALASKHLAGAAIDVFPTEPATNSDPFTSPLCEFDNVLLTPHIGGSTQEAQENIGLEVAGKLIKYSDNGSTLSAVNFPEVSLPLHGGRRLMHIHENRPWVLTALNKIFAEQGVNIAAQYLQTSAQMGYVVIDIEADEDVAEKALQAMKAIPGTIRARLLY
The molecule B3 registered an Activity in test [1] of 0.02 units/mg. Also, affinity in test [2] was put at a Ki of 8 mM.

B4: serA414: E. coli PGD variant with replacement G349A (protein, UniProt P0A9T0 2-410, looked up, variant G349A)
D-3-phosphoglycerate …: AKVSLEKDKIKFLLVEGVHQKALESLRAAGYTNIEFHKGALDDEQLKESIRDAHFIGLRSRTHLTEDVINAAEKLVAIGCFCIGTNQVDLDAAAKRGIPVFNAPFSNTRSVAELVIGELLLLLRGVPEANAKAHRGVWNKLAAGSFEARGKKLGIIGYGHIGTQLGILAESLGMYVYFYDIENKLPLGNATQVQHLSDLLNMSDVVSLHVPENPSTKNMMGAKEISLMKPGSLLINASRGTVVDIPALCDALASKHLAGAAIDVFPTEPATNSDPFTSPLCEFDNVLLTPHIGGSTQEAQENIGLEVAGKLIKYSDNGSTLSAVNFPEVSLPLHGGRRLMHIHENRPAVLTALNKIFAEQGVNIAAQYLQTSAQMGYVVIDIEADEDVAEKALQAMKAIPGTIRARLLY
For the molecule B4, in test [1], the Activity was found to be 0.05 units/mg. The molecule further showed a Ki in test [2] of 1 mM.

B5: serA419: E. coli PGD variant with replacement G349F (protein, UniProt P0A9T0 2-410, looked up, variant G349F)
D-3-phosphoglycerate …: AKVSLEKDKIKFLLVEGVHQKALESLRAAGYTNIEFHKGALDDEQLKESIRDAHFIGLRSRTHLTEDVINAAEKLVAIGCFCIGTNQVDLDAAAKRGIPVFNAPFSNTRSVAELVIGELLLLLRGVPEANAKAHRGVWNKLAAGSFEARGKKLGIIGYGHIGTQLGILAESLGMYVYFYDIENKLPLGNATQVQHLSDLLNMSDVVSLHVPENPSTKNMMGAKEISLMKPGSLLINASRGTVVDIPALCDALASKHLAGAAIDVFPTEPATNSDPFTSPLCEFDNVLLTPHIGGSTQEAQENIGLEVAGKLIKYSDNGSTLSAVNFPEVSLPLHGGRRLMHIHENRPFVLTALNKIFAEQGVNIAAQYLQTSAQMGYVVIDIEADEDVAEKALQAMKAIPGTIRARLLY
For B5, the Activity in test [1] was 0.05 units/mg. The molecule also returned a Ki in test [2] of 10 mM.

B6: serA420: E. coli PGD variant with replacement G349H (protein, UniProt P0A9T0 2-410, looked up, variant G349H)
D-3-phosphoglycerate …: AKVSLEKDKIKFLLVEGVHQKALESLRAAGYTNIEFHKGALDDEQLKESIRDAHFIGLRSRTHLTEDVINAAEKLVAIGCFCIGTNQVDLDAAAKRGIPVFNAPFSNTRSVAELVIGELLLLLRGVPEANAKAHRGVWNKLAAGSFEARGKKLGIIGYGHIGTQLGILAESLGMYVYFYDIENKLPLGNATQVQHLSDLLNMSDVVSLHVPENPSTKNMMGAKEISLMKPGSLLINASRGTVVDIPALCDALASKHLAGAAIDVFPTEPATNSDPFTSPLCEFDNVLLTPHIGGSTQEAQENIGLEVAGKLIKYSDNGSTLSAVNFPEVSLPLHGGRRLMHIHENRPHVLTALNKIFAEQGVNIAAQYLQTSAQMGYVVIDIEADEDVAEKALQAMKAIPGTIRARLLY
In the case of B6, the Activity in test [1] stood at 0.05 units/mg. In test [2], this molecule gave an inhibition constant (Ki) of 10 mM.

B7: serA416: E. coli PGD variant with replacement G349R (protein, UniProt P0A9T0 2-410, looked up, variant G349R)
D-3-phosphoglycerate …: AKVSLEKDKIKFLLVEGVHQKALESLRAAGYTNIEFHKGALDDEQLKESIRDAHFIGLRSRTHLTEDVINAAEKLVAIGCFCIGTNQVDLDAAAKRGIPVFNAPFSNTRSVAELVIGELLLLLRGVPEANAKAHRGVWNKLAAGSFEARGKKLGIIGYGHIGTQLGILAESLGMYVYFYDIENKLPLGNATQVQHLSDLLNMSDVVSLHVPENPSTKNMMGAKEISLMKPGSLLINASRGTVVDIPALCDALASKHLAGAAIDVFPTEPATNSDPFTSPLCEFDNVLLTPHIGGSTQEAQENIGLEVAGKLIKYSDNGSTLSAVNFPEVSLPLHGGRRLMHIHENRPRVLTALNKIFAEQGVNIAAQYLQTSAQMGYVVIDIEADEDVAEKALQAMKAIPGTIRARLLY
Take B7: the Activity in test [1] is recorded as 0.04 units/mg. The inhibitory constant (Ki) in test [2] came to 15 mM.

B8: serA415: E. coli PGD variant with replacement G349K (protein, UniProt P0A9T0 2-410, looked up, variant G349K)
D-3-phosphoglycerate …: AKVSLEKDKIKFLLVEGVHQKALESLRAAGYTNIEFHKGALDDEQLKESIRDAHFIGLRSRTHLTEDVINAAEKLVAIGCFCIGTNQVDLDAAAKRGIPVFNAPFSNTRSVAELVIGELLLLLRGVPEANAKAHRGVWNKLAAGSFEARGKKLGIIGYGHIGTQLGILAESLGMYVYFYDIENKLPLGNATQVQHLSDLLNMSDVVSLHVPENPSTKNMMGAKEISLMKPGSLLINASRGTVVDIPALCDALASKHLAGAAIDVFPTEPATNSDPFTSPLCEFDNVLLTPHIGGSTQEAQENIGLEVAGKLIKYSDNGSTLSAVNFPEVSLPLHGGRRLMHIHENRPKVLTALNKIFAEQGVNIAAQYLQTSAQMGYVVIDIEADEDVAEKALQAMKAIPGTIRARLLY
In test [1], B8 gave an Activity of 0.03 units/mg. Further, in test [2], the affinity corresponds to a Ki of 15 mM.
